{"source": "patent US11649460B2", "about": "“DNA aptamers, method for inhibiting human galectin-1 and method of treating a mammal in need thereof” (priority 2020, dated 2023)", "molecules": {"B1": {"name": "CTGACACAGCAGGTTGGTGCCAACTAACACCATAAGAATACCCCGCTCCAAATAAGCCCACACGTAAACCCGAGTCGAGCAATCTCGAAAT (nucleic acid)", "DNA": "CTGACACAGCAGGTTGGTGCCAACTAACACCATAAGAATACCCCGCTCCAAATAAGCCCACACGTAAACCCGAGTCGAGCAATCTCGAAAT", "modifications": "chemistry not given here", "notes": "DNA aptamer that recognizes human galectin-1"}}, "key": {"[1]": {"tested_on": "MCF-7 human breast adenocarcinoma cell line", "experiment": "SRB cell proliferation (cytotoxicity) assay, MCF-7", "description": "(§1) The XLSTAT software was used to determine the IC50, TGI and LC50 values using the four-parameter logistic curve equation."}, "[2]": {"tested_on": "HT-29 human colorectal adenocarcinoma", "experiment": "SRB cell proliferation (cytotoxicity) assay, HT-29", "description": "as §1"}, "[3]": {"tested_on": "OVCAR-3 human ovarian adenocarcinoma cell line", "experiment": "SRB cell proliferation (cytotoxicity) assay, OVCAR-3", "description": "as §1"}, "[4]": {"target": "T1, hGal1-induced hemagglutination of red blood cells (Homo sapiens, UniProt P09382)", "T1 construct": "42; made in house; host or cells: E. coli strain M-15", "T1 sequence (P09382 2-135)": "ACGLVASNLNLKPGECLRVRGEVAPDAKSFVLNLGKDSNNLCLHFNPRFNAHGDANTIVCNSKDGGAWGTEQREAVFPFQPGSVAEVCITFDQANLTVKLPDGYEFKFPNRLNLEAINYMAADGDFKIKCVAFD", "experiment": "Hemagglutination inhibition assay, native hGal1", "format": "cell-based", "in_short": "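hGal1 (5 μM) was mixed with aptamer at 0-40 μM in PBS pH 7.4, then 3% type B+ human red blood cells were added and the mixture incubated 2 h at room temperature. Agglutination area was measured from plate photographs and expressed as relative agglutination.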"}, "OVCAR-3 cell line": {"tested_on": "OVCAR-3 cell line", "experiment": "Synergism test with cisplatin, OVCAR-3", "details": "aptamer 12.5 μM associated with cisplatin 3 μM", "from_the_text": "For the analysis of cell proliferation, the non-clonogenic method of sulforodamine B (SRB) was used, a protein dye that binds to the basic amino acid residues of cell proteins that were viable at the time of the fixation process. Therefore, the greater the amount of SRB bound per compartment, the less the antiproliferative activity of the item under study."}}, "data": [{"molecule": "B1", "values": [{"measurement": "Relative viability (%) of test items", "setting": "[1]; 0.781 µM", "value": 110.4, "unit": "%"}, {"measurement": "Relative viability (%) of test items", "setting": "[1]; 1.562 µM", "value": 96.7, "unit": "%"}, {"measurement": "Relative viability (%) of test items", "setting": "[1]; 3.125 µM", "value": 95.8, "unit": "%"}, {"measurement": "Relative viability (%) of test items", "setting": "[1]; 6.25 µM", "value": 86.2, "unit": "%"}, {"measurement": "Relative viability (%) of test items", "setting": "[1]; 12.5 µM", "value": 72.7, "unit": "%"}, {"measurement": "Relative viability (%) of test items", "setting": "[1]; 25 µM", "value": 60.9, "unit": "%"}, {"measurement": "Relative viability (%) of test items", "setting": "[1]; 50 µM", "value": 43.4, "unit": "%"}, {"measurement": "Relative viability (%) of test items", "setting": "[1]; 100 µM", "value": 0.7, "unit": "%"}, {"measurement": "TGI: Concentration for total inhibition of cell growth", "setting": "[1]; MCF-7", "value": ">100", "unit": "µM"}, {"measurement": "IC50", "setting": "[1]; read-out: IC50: Concentration to inhibit 50% of cell growth, MCF-7", "value": 35.1, "unit": "µM"}, {"measurement": "CC50", "setting": "[1]; read-out: LC50: Concentration for 50% cell death, MCF-7", "value": "> 100", "unit": "µM"}, {"measurement": "Relative cell viability (%) of test items", "setting": "[2]; 0.781 µM", "value": 93.5, "unit": "%"}, {"measurement": "Relative cell viability (%) of test items", "setting": "[2]; 1.562 µM", "value": 90.7, "unit": "%"}, {"measurement": "Relative cell viability (%) of test items", "setting": "[2]; 3.125 µM", "value": 88.6, "unit": "%"}, {"measurement": "Relative cell viability (%) of test items", "setting": "[2]; 6.25 µM", "value": 74.6, "unit": "%"}, {"measurement": "Relative cell viability (%) of test items", "setting": "[2]; 12.5 µM", "value": 47.4, "unit": "%"}, {"measurement": "Relative cell viability (%) of test items", "setting": "[2]; 25 µM", "value": 5.8, "unit": "%"}, {"measurement": "Relative cell viability (%) of test items", "setting": "[2]; 50 µM", "value": "−84.0", "unit": "%"}, {"measurement": "Relative cell viability (%) of test items", "setting": "[2]; 100 µM", "value": "−61.1", "unit": "%"}, {"measurement": "TGI: Concentration for total inhibition of cell growth", "setting": "[2]; HT-29", "value": 22.932, "unit": "µM"}, {"measurement": "IC50", "setting": "[2]; read-out: IC50: Concentration to inhibit 50% of cell growth, HT-29", "value": 13.5, "unit": "µM"}, {"measurement": "CC50", "setting": "[2]; read-out: LC50: Concentration for 50% cell death, HT-29", "value": 40.9, "unit": "µM"}, {"measurement": "Relative viability (%) of test items", "setting": "[3]; 0.781 µM", "value": 99.6, "unit": "%"}, {"measurement": "Relative viability (%) of test items", "setting": "[3]; 1.562 µM", "value": 93.9, "unit": "%"}, {"measurement": "Relative viability (%) of test items", "setting": "[3]; 3.125 µM", "value": 89.4, "unit": "%"}, {"measurement": "Relative viability (%) of test items", "setting": "[3]; 6.25 µM", "value": 67.2, "unit": "%"}, {"measurement": "Relative viability (%) of test items", "setting": "[3]; 25 µM", "value": 37.7, "unit": "%"}, {"measurement": "Relative viability (%) of test items", "setting": "[3]; 50 µM", "value": "−14.6", "unit": "%"}, {"measurement": "Relative viability (%) of test items", "setting": "[3]; 100 µM", "value": "−68.1", "unit": "%"}, {"measurement": "TGI: Concentration for total inhibition of cell growth", "setting": "[3]; OVCAR-3", "value": 41.931, "unit": "µM"}, {"measurement": "IC50", "setting": "[3]; read-out: IC50: Concentration to inhibit 50% of cell growth, OVCAR-3", "value": 14.2, "unit": "µM"}, {"measurement": "CC50", "setting": "[3]; read-out: LC50: Concentration for 50% cell death, OVCAR-3", "value": 82.4, "unit": "µM"}, {"measurement": "inhibition effect over RBC agglutination", "setting": "[4]; 10 μM aptamer, 5 μM hGal1", "value": "approximately 75%"}, {"measurement": "inhibitory effect on galectin-induced hemagglutination", "setting": "[4]; native Gal1 5 μM", "value": "better effect"}, {"measurement": "concentration from which hemagglutination was inhibited", "setting": "[4]; native Gal1 5 μM, listed as aptamer 4", "value": 10, "unit": "µM"}, {"measurement": "decrease of cell viability versus cisplatin alone", "setting": "OVCAR-3 cell line", "value": "~60", "unit": "%"}]}]}
